{
  "source": "patent US9012177B2",
  "about": "“Methods and compositions for improving sugar transport, mixed sugar fermentation, and production of biofuels” (The Regents of the University of California, priority 2009, dated 2015)",
  "origin": "cited, not measured here",
  "molecules": {"B1": {"name": "psXDH (protein, UniProt P22144 1-363, looked up)", "D-xylulose reductase": "MTANPSLVLNKIDDISFETYDAPEISEPTDVLVQVKKTGICGSDIHFYAHGRIGNFVLTKPMVLGHESAGTVVQVGKGVTSLKVGDNVAIEPGIPSRFSDEYKSGHYNLCPHMAFAATPNSKEGEPNPPGTLCKYFKSPEDFLVKLPDHVSLELGALVEPLSVGVHASKLGSVAFGDYVAVFGAGPVGLLAAAVAKTFGAKGVIVVDIFDNKLKMAKDIGAATHTFNSKTGGSEELIKAFGGNVPNVVLECTGAEPCIKLGVDAIAPGGRFVQVGNAAGPVSFPITVFAMKELTLFGSFRYGFNDYKTAVGIFDTNYQNGRENAPIDFEQLITHRYKFKDAIEAYDLVRAGKGAVKCLIDGPE"}},
  "details": "saturated xylitol, Watanabe et al. (2005b)",
  "note": "Read-outs that look alike come from different tables or passages of the source.",
  "data": [
    {"molecule": "B1", "values": [
      {"measurement": "Km", "setting": "NAD+", "value": 381, "unit": "µM"},
      {"measurement": "kcat", "setting": "NAD+", "value": 17.5, "unit": "s⁻¹"},
      {"measurement": "kcat", "setting": "NADP+", "value": 1.83, "unit": "s⁻¹"}
    ]}
  ]
}
